Protein production data for 16 sequences are collected here from a protein production outcome set (Wang et al. 2014).

The data set can be described thus: label from the status in PepcDB records.
For the sequence “MSLTTSKTRKSGVAMTEKLELDPARTAIVLIEYQNEFTSDGGVLHGAVADVMQHTGMLANTVAVVDAARQAGVPIMHAPITFAEGYGELTRHPYGILKGVVDGKAFVKGTWGAAIVDELAPVNGDIVIEGKRGLDTFASTNLDFILRSKGVDTIVLGGFLTNCCVESTMRTGYERGFRVITLTDCVAATSQEEHNNAISYDFPMFSVPMTSADVIAALEGHHHHHH”, the protein production result is “not failed”.

As to “MSTRSMSAPANATVADVAAGDAIRSLDPSIRAVWAIKMAAFSMFLFLPALFYDLTHLFSPDSWLPFGVLSGTVLVGGVLYCVAWPRLRYRAWGFVLRPEELYMEHGVLQHVRTIVPLRRIQHVDVSQDLIEREFALGRLVVHTAGSRSSDVVIPGLPLSEAETIRDKIKRFILEDPLTEEPV”, the protein production result was “failed”.

Consider “MEEMFETSLKVIEQSGWLAPVLFIMLHVFRQVFFIPVIIICLVGGYLFGSFYGSLYSIIGLTATSALFYGIVHGFPRFLAKVSQLKKRFLGEKESLSLPQMMLLRIVPFIHFHLVSLYVMETRPTFREYMKISFYLSMPPAIIYTLFGDMIHELPLVGTVVFALFIGLLCFMARRKEQRYAWQEFFKA”, for which the protein production entry is on record as “failed”.

With “MATTPRVDAGGGSSMFAAVPLLALPVIVYNLVALTLTGGFKATDATARMNEALFTIHMTSRTDWAVSLGDLLMAASLVVLFVELLKSTTSRKIAIINHSLSMVLFILCLVEFLLAPAFATSTFFLITLMVLLDVLAGFIVTIVAARRDVDFGDN”, the protein production entry is recorded as “failed”.

For the sequence “MTQDEQICSLALTRIPGLGPTGAFRLVSSLGSATRVFEHRKELSQLVPGVSEKIITALNNSEAFRRAEQELTFCEKNHIRCLTLNDEGYPGRLRECDDAPLALFYRGNADLNALHVINMVGTRHATPYGQDICTRFLADLSVLCPNALIVSGLAYGIDIHAHRAALQNHFKTIGVLAHGLDRIYPAEHRKTAVSMLEQGGLLTEFTSGTNPDRQNFVKRNRIVAGMSDATVVIESAAKGGALITAELAESYHRDCFAFPGRCNDEYSIGCNNLIRKNQAVLITSAEDLVKAMGWESSPKTEKTVQRELFPDLSEEEERIVKRLGKMSEGLQINTLVIDTNIPVNRMSALLFELEMKGVIRALAGGVYRLIM”, the protein production result is given as “not failed”.

Turning to “MKRSTEFLKSLDVKLILILLALCVTSIAAIYSSQQTGQYGESNFAMKQGLNYIIGVVLLLLVASIDLDQLQKLSWPLYIVGFASLILLKILPVSTFTPEKLGAKRWFVFPLVGQIQPSEFFKISLLLVVASIAVKHNAQYMARTFQTDLKLVGKIVLVSLPPIAVVYSQPDTGMVFLYAAAIACILFMSGIQKKLIALCTVIPVTILSTLIFIYVRYEDFFFNKLVTLLKPHQQSRILGWLDPFEHTDQGYQTQQSILAVGSGGMEGKGFGEGNVYIPEKHTDFIFATIAEEGGFIVAALVVFLFLLLLYRTIIIGYSADNLFGTLLCAGSIGILTVQIFQNIGMIVGLMPVKGIALPFLSYGGSSLFSNMIMMGLILSVRKTYKKYMFSVK”, the protein production result is recorded as “failed”.

As for “MCFSFIMPPAMADILDIWAVDSQIASDGSIPVDFLLPTGIYIQLEVPREATISYIKQMLWKQVHNYPMFNLLMDIDSYMFACVNQTAVYEELEDETRRLCDVRPFLPVLKLVTRSCDPGEKLDSKIGVLIGKGLHEFDSLKDPEVNEFRRKMRKFSEEKILSLVGLSWMDWLKQTYPPEHEPSIPENLEDKLYGGKLIVAVHFENCQDVFSFQVSPNMNPIKVNELAIQKRLTIHGKEDEVSPYDYVLQVSGRVEYVFGDHPLIQFQYIRNCVMNRALPHFILVECCKIKKMYEQEMIAIEAAINRNSSNLPLPLPPKKTRIISHVWENNNPFQIVLVKGNKLNTEETVKVHVRAGLFHGTELLCKTIVSSEVSGKNDHIWNEPLEFDINICDLPRMARLCFAVYAVLDKVKTKKSTKTINPSKYQTIRKAGKVHYPVAWVNTMVFDFKGQLRTGDIILHSWSSFPDELEEMLNPMGTVQTNPYTENATALHVKFPENKKQPYYYPPFDKIIEKAAEIASSDSANVSSRGGKKFLPVLKEILDRDPLSQLCENEMDLIWTLRQDCREIFPQSLPKLLLSIKWNKLEDVAQLQALLQIWPKLPPREALELLDFNYPDQYVREYAVGCLRQMSDEELSQYLLQLVQVLKYEPFLDCALSRFLLERALGNRRIGQFLFWHLRSEVHIPAVSVQFGVILEAYCRGSVGHMKVLSKQVEALNKLKTLNSLIKLNAVKLNRAKGKEAMHTCLKQSAYREALSDLQSPLNPCVILSELYVEKCKYMDSKMKPLWLVYNNKVFGEDSVGVIFKNGDDLRQDMLTLQMLRLMDLLWKEAGLDLRMLPYGCLATGDRSGLIEVVSTSETIADIQLNSSNVAAAAAFNKDALLNWLKEYNSGDDLDRAIEEFTLSCAGYCVASYVLGIGDRHSDNIMVKKTGQLFHIDFGHILGNFKSKFGIKRERVPFILTYDFIHVIQQGKTGNTEKFGRFRQCCEDAYLILRRHGNLFITLFALMLTAGLPELTSVKDIQYLKDSLALGKSEEEALKQFKQKFDEALRESWTTKVNWMAHTVRKDYRS”, the protein production entry is on record as “failed”.

Regarding “MSKKIILITGASSGFGRLTAEALWSRPPGIRLDARHCRPQRVQCSPALPGTMTLTCAPWSSTSSRRSVDRAIDQIIGEDGRIDVLIHNAPHGVRTRRSIHARAVRRALRYQCAPNASTGRRCRTCAGKSMGFSWISSSSSAGGTPPYLAPYFAAKAHGCHRCAVRTAVALGHRDVDHRPVPSRAAPITSPIPAYRTTTPAAEYEAGPNAGLGEEIKKAFAAIVAGRRCVTGCRCHCSGCGHRVRQARSGCTSTRPKTAPMWDSAFWTGRAEMLHRVGLSDLLKPRALA”, the protein production entry is listed as “not failed”.

Regarding “MSVLIYVESNGSEIKKSSMDAVAYGTQVASKLGGSAIVVAIGNIPQEQLTALGNFGASKVLHVTGDAFNQNAPLASAAAVVEAAKKAGAKVIVLPKSTLVDSFAPKLASQLKAGVVTNVTELPDTSAGFQVKRSIFTGKAFATVSINTDIKVITLAKNAYQGTETGGTAAVEALSVSLTDADTKVKTTNVEKMSGELLLTEAEIVVSGGRGLKGPENWGVLLDLAKALGAATGCSKPVSDMDWRPHHEHVGQTGVKVAPNLYIAVGISGAIQHLAGVNSSKCIVVINKDPEAPFFKAADYGIVGDLFEVLPKLTEAAKLLK”, the protein production entry is listed as “failed”.

With “MRLPLNQRVAILLHEGTTGTIGKTGLALLRYSEAPIVAVIDRNCAGQSLREITGIYRYVPIVKSVEAALEYKPQVLVIGIAPKGGGIPDDYWIELKTALQAGMSLVNGLHTPLANIPDLNALLQPGQLIWDVRKEPANLDVASGAARTLPCRRVLTVGTDMAIGKMSTSLELHWAAKLRGWRSKFLATGQTGVMLEGDGVALDAVRVDFAAGAVEQMVMRYGKNYDILHIEGQGSLLHPGSTATLPLIRGSQPTQLVLVHRAGQTHNGNNPHVPIPPLPEVIRLYETVASGGGAFGTVPVVGIALNTAHLDEYAAKEAIAHTIAETGLPCTDVVRFGADVLLDAVMQN”, the protein production result was “not failed”.

In the case of “MKDIYELLNDIDIDEKELEEIEASEIEKEKVKRNVKQSIRTKKKMKSWKKGVAAASILVGLSVTTLGIGFPTYAGGLPIVGDIFRFLDNGRTGLYENYKEFSTELNMTRESNGVKVTINDVISDGRTLSITYSLESEQDLGDDPIILGGLDIMDAHGSSGSGKMTKVTEKKYVGMVTTTHHDSNKKDKVNFRWNIEGIEIPDRKKSIQGHWNFALTVKSMDSKERTIGGSSEKEGIKANMEKVAMSPVSFILYYNQEVSKGARKEWDSVDVELTVKDDLGNDYSGEGNGGSGNDPYNIRWSATFQKLNENATKLIVTPRVHLRVHTPENHGGVEYVNGKEKKIEVPNKEAKKKDIVLDDIVIDLKK”, the protein production entry is “not failed”.

Regarding “MSKQAVYKIELKIFGYFILILMLSTITVILMLIVKNALEEVLIRYNENTLMTAKFLFCDVKKFSIVMYFFVFVIWSHLLLKRKVQYFINLSESTSEIAKGNFKVIIPVKREDEFGNLAKGINEIVEKFNFILKKEKEIEKTKIDLITNVSHDLRTPLTSILGYLELVENDQYKDEVALWYYIDIAYNKTKRLKVLIDDLFQLTTLNEHSMKLCKKEINIAELLKQLIGEYMLNFQKAGIRCRLKLTDEKLYVLGDAVLLIRAFENIIINCIKYSKTSEIMDVSVQRKGDMAVLNFINYGEPIPAIDIPYIFQRFYRVDKSRSDKLGGSGLGLAIAKNIIDITGGNIEVESDTTRTNFKIVLPCYGK”, the protein production entry was “failed”.

On to “MSIATTPLHTALSLPQIQSFAASDMAAIDTLIHDRLTSDIVLINQIADHIICSGGKRLRPMLTMLAGHAIGPTGPHHHQLAAIIEFIHTATLLHDDVVDGSELRRSRSTANALWGNAPSVLVGDFLYSRSFQLMTELANLEVMQILAETTNRISEGEVLQLLHVHNPDTDETTYLSVIERKTAILFAAAAQLGALASHADTQTQTRMYEYGMQLGYAFQITDDVLDYTANNSQLGKNLGDDLAEGKATLPVIHAMTHSDAATCERLRMIISKGDSDAMPEVLNAIRTTGSLDYSRQRASAYAATAERALDGLPETEAVAALRGLARYAVQRTY”, for which the protein production result was “failed”.

In the case of “MKAIIMAGGEGSRLRPLTCKRPKPLVPVANRPVMEYCVDLLRELGIKEVGVTLQYLPQLIEEYFGDGSDFGLHLHYFVEDKPLGTAGSVKNAAAILDETFVVVSGDALTDFDLRPAIARHKESGALATLVLTAVDNPLEYGVVITNPDGSIRSFLEKPSWGEVFSDRVNTGIYILEPEVLELIPEGRPFDFSKDLFPRLLKEKRPLYGVTLSGYWCDIGNLTQYRQAQEDILRGRVKVRVVGQDKGGGVVMGEGVEIAPGARIEGPVLIGGACHIATGAVVGPFTVLGPYTRVEEGATVRRSVLWDNVYTGEGANVRGAVVCSRASLQRRVQVYEGAVIGDGTQVDAGAEVRPEVKVWPEKTLGRETVVHESLIWGRGVARPLFVGSQAPGYLHGDLTPFQVTRLGMAYGASFPPGTTVGLSTFAGGAGEMLYKALAAGLMAAGVQVADLGRLLTPIHRFAVRSLGLDGGCHIKRDAAERDKVWLHLVNSRGHDLNPAAVRKIENLYWREDGRRVQEVPASIYFPGLEGAYRDWLLATLGDHGLKKRALRVALGGQGQVAGVAGTILQDAGAEVIRLDLDPAKTWQAVQEDLPYFAGEIRRYGADLGAALDSNGEELILFTGEGRRVAPAQQMTLLARVYLETHRGASLVLPVTAPRVLEQVAGGLHGRVERVKGHPGIYHEAMARADGETALGQQHLQLDALAALVHILDWLASREESLDSAVAALPPVYTASRTVACPWEAKGRVMRTLISEEPADGVELLDGVQVRHGKGWSLVLPDGETPHYHIYSEAFSQEAAEELAGFYEERLKELIAREKSKGR”, the protein production result is on record as “failed”.

Turning to “MNRKILVTGATGSNGTEIVKRLAAKNVQVRAMVRDFDRAKKIAFPNVEVVEGNFDRPETLLEALAEVDRAFLLTNSTERAEAQQLAFVDAARQNGVKHIVKLSQFAADAHSPVRFLRYHAAVEAAIQGSGMTYTFLRPNLFMQGLLNFQSTITSQNAFYAAISDAKVSVVDVRDIADVAVVALTETEHEGKIYNLTGPQALTHAEMAEQLSAALNRQIAFVDIPSEVMRDQLLNIGMPPWQADGVIEDYAHYRRNEAAAVSSGIQDAIGKEPRSFNTFACDYAAMFG”, the protein production result is recorded as “failed”.

Turning to “MSKILLTGASGYIGSHLKNKLKKDHEVIAISRNTHNKTDEENVTWKSADLFDLDEITKVMKDVDTAIYLVHSMMPSAKLTQASFEDMDALLADNFARAAQKQGVKHIVYMSGLIPENDELSAHLRSRLECEKILGDYGIPVSTLRAGLIIGAKGSSYPILKRLVKRLPAMVLPSWAYNKIAPVAIDDVIDGLAALVNRTPKDNEAIDITGPEVMNYKTLIQRTANVLDKRLPMLDLPIIPIIVSRYWVQLISNVPKEMVYPLMNSLTHDMVPHRKRVVSNLSVGNITFEDSVKRALREEQKTSKKKSDSKNSQSFGRMHQEIKDVRAITRFKIPEGYSIKDVTKEYAKFINNITLHLVKGTINEREFNMNLPFINKFILKMERDEADSTEDMVVYNIVGGDLAHSNDGGNARFEFRRIRNTNEGIIALQEYEPTLPWVVYKLTQAKAHKTVMNIFKNKMARLAQQKNVKDETYMSNRVTIGVTVASAFVIGSAVGFQLFKKHQIKKNTMSNAEL”, the protein production entry is reported as “failed”.
